From US8877192B2, “Rage fusion proteins and methods of use” (TransTech Pharma, LLC, priority 2004, dated 2014)

Tests used:
amyloid-beta (Abeta) = biological target: T1, amyloid-beta (Abeta) (Homo sapiens, UniProt P05067); test: In vitro ligand binding (ELISA) to immobilized amyloid-beta; settings: increasing dilutions of fusion protein; FIG. 7
T1 construct: Amyloid Beta (1-40) from Biosource; purchased Biosource
Protocol: (§1) For example, the RAGE fusion protein may be used in a binding assay to identify potential RAGE ligands. In one example embodiment of such a binding assay, a known RAGE ligand may coated onto a solid substrate (e.g., Maxisorb plates) at a concentration of about 5 micrograms per well, where each well contains a total volume of about 100 microliters (μL). The plates may be incubated at 4° C. overnight to allow the ligand to absorb. Alternatively, shorter incubation periods at higher temperature (e.g., room temperature) may be used. […] The fusion protein bound to the immobilized ligand may be detected in a variety of ways. […] The bound complex may be detected by adding the alkaline phosphatase substrate, para-nitrophenylphosphate (PNPP), and measuring conversion of PNPP to para-nitrophenol (PNP) as an increase in absorbance at 405 nm. […] Binding was detected by the addition of an immunodetection complex containing a monoclonal mouse anti-human IgG1 diluted 1:11,000 to a final assay concentration (FAC) of 21 ng/100 μL, a biotinylated goat anti-mouse IgG diluted 1:500, to a FAC of […], and an avidin-linked alkaline phosphatase. […] Binding of the complex to the immobilized fusion protein was quantified by measuring conversion of PNPP to para-nitrophenol (PNP) which was measured spectrophotometrically at 405 nm. […]

S100b (S100) = biological target: T2, S100b (S100) (Homo sapiens, UniProt P04271); test: In vitro ligand binding (ELISA) to immobilized S100b; settings: increasing dilutions of fusion protein; FIG. 7
T2 sequence (P04271 1-92): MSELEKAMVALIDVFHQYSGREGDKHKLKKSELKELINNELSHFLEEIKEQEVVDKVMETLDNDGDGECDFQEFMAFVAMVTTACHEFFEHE
Protocol: as §1

[1] = system: S100b/RAGE-induced production of TNF-α in THP-1 cells; test: S100b/RAGE-induced production of TNF-α in THP-1 cells; assay type: cell-based; settings: FIG. 10
Protocol: THP-1 myeloid cells may be cultured in RPMI-1640 media supplemented with 10% FBS and induced to secrete TNF-α via stimulation of RAGE with S100b. When such stimulation occurs in the presence of a RAGE fusion protein, induction of TNF-α by S100b binding to RAGE may be inhibited.
Previous work has shown that the myeloid THP-1 cells may secrete TNF-α in response to RAGE ligands. In this assay, THP-1 cells were cultured in RPMI-1640 media supplemented with 10% FBS using a protocol provided by ATCC. […] The amount of TNF-α secreted by the THP-1 cells was measured 24 hours after the addition of the proteins to the cell culture using a commercially available ELISA kit for TNF-α (R&D Systems, Minneapolis, Minn.).

[2] = Pharmacokinetic profile of TTP-4000 after IV injection, plasma ELISA; assay type: in vivo, monkeys; settings: single IV bolus 5 mg/kg, 2 animals, FIG. 11
Protocol: Following collection, the tubes were placed on wet ice (maximum 30 minutes) until centrifugation under refrigeration (at 2 to 8° C.) at 1500×g for 15 minutes. Each harvested plasma sample was then stored frozen (−70° C.±10° C.) until assayed for RAGE polypeptide using an ELISA at various time-points following the injection, as described in Example 6.
Initially, 50 uL of the RAGE specific monoclonal antibody 1HB1011 at a concentration of 10 ug/mL in 1×PBS pH 7.3 is coated on plates via overnight incubation. When ready for use, plates are washed three times with 300 uL of 1× Imidazole-Tween wash buffer and blocked with 1% BSA. […] The samples are allowed to incubate at room temperature for one hour. After incubation, the plates are plates are washed three times. A Goat Anti-human IgG1 1 (Sigma A3312) AP conjugate in 1×PBS with 1% BSA is added and allowed to incubate at room temperature for 1 hour. The plates are washed three times. Color was elucidated with paranitrophenylphosphate.

Fc receptor = Fc receptor activation: TNF-α secretion from THP-1 cells; assay type: cell-based; settings: wells precoated with 10 ug/well heat aggregated protein, 24 hours, FIG. 12
Source text: Fc stimulation results in TNF-α secretion.

T1 sequence (P05067 672-711 limits assumed): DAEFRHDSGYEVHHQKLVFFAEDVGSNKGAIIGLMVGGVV

B1: TTP-4000: four domain RAGE fusion protein (SEQ ID NO: 32): human RAGE amino acids 1-251 linked to CH2 and CH3 domains of human IgG (protein)
chain: MAAGTAVGAWALVLSLWGAVVGAQNITARIGEPLVLKCKGAPKKPPQRLEWKLNTGRTEAWKVLSPQGGGPWDSVARVLPNGSLFLPAVGIQDEGIFRCQAMNRNGKETKSNYRVRVYQIPGKPEIVDSASELTAGVPNKVGTCVSEGSYPAGTLSWHLDGKPLVPNEKGVSVKEQTRRHPETGLFTLQSELMVTPARGGDPRPTFSCSFSPGLPRHRALRTAPIQPRVWEPVPLEEVQLVVEPEGGAVAPPSVFLFPPKPKDTLMISRTPEVTCVVVDVSHEDPEVKFNWYVDGVEVHNAKTKPREEQYNSTYRVVSVLTVLHQDWLNGKEYKCKVSNKALPAPIEKTISKAKGQPREPQVYTLPPSRDELTKNQVSLTCLVKGFYPSDIAVEWESNGQPENNYKTTPPVLDSDGSFFLYSKLTVDKSRWQQGNVFSCSVMHEALHNHYTQKSLSLSPGK
- binding to immobilized amyloid-beta (absorbance at 405 nm) (amyloid-beta (Abeta)): specifically interact
- binding to immobilized S100b (absorbance at 405 nm) (S100b (S100)): specifically interact
- reduction of induction of TNF-α by S100b ([1]; 10 μg protein, S100b 0.1 mg/ml FAC, 24 hours): ~70%
- blocking S100b induction of TNF-α compared with sRAGE ([1]; 10 μg): at least as effective in blocking S100b induction of TNF-α as is sRAGE
- terminal half-life [2]: greater than 300 hours
- TNF generated (Fc receptor): less than 2 ng/well
